This is an account of results in publication PMC4142144.

In the assay the target is 2CARD^RIG-I(E52A)-CARD^MAVS(KKK) fusion protein, 16 aa linker (human) (UniProt O95786). Nature of the assay: SEC-MALS. (In gel filtration, larger molecules generally elute earlier.)

In the case of “2CARD^RIG-I(E52A)-CARD^MAVS(KKK) fusion protein, 16 aa linker (from UniProt O95786 1-188; Q7Z434 1-97)”, the stoichiometry N (in general, a count of units in the complex or per binding partner) worked out at 4.
